What was measured:
[1] = biological target: t2ea_human GTF2E1 (UniProt P29083)
[2] = biological target: t2ea_human GTF2E1 (UniProt P29083); remark: listed apart in the source
[3] = biological target: t2ea_human GTF2E1 (UniProt P29083); remark: listed apart in the source
[4] = biological target: t2ea_human GTF2E1 (UniProt P29083); remark: listed apart in the source
[5] = biological target: t2ea_human GTF2E1 (UniProt P29083); remark: listed apart in the source
[6] = biological target: t2ea_human GTF2E1 (UniProt P29083); remark: listed apart in the source

Sequence of t2ea_human GTF2E1 (P29083 whole entry): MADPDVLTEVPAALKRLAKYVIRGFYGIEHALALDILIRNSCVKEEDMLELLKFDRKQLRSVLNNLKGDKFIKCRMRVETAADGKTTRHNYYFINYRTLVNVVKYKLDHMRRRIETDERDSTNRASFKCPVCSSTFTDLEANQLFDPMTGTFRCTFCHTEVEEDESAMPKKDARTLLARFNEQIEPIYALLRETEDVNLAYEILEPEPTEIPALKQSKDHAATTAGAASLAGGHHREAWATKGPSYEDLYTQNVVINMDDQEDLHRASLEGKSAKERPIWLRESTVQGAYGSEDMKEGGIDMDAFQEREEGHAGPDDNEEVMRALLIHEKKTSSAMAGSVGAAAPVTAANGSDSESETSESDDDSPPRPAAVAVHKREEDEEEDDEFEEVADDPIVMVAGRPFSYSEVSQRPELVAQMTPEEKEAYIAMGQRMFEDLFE
Sequence of General transcription factor IIH subunit 1 (Homo sapiens), P32780 Q66A (P32780 whole entry Q66A): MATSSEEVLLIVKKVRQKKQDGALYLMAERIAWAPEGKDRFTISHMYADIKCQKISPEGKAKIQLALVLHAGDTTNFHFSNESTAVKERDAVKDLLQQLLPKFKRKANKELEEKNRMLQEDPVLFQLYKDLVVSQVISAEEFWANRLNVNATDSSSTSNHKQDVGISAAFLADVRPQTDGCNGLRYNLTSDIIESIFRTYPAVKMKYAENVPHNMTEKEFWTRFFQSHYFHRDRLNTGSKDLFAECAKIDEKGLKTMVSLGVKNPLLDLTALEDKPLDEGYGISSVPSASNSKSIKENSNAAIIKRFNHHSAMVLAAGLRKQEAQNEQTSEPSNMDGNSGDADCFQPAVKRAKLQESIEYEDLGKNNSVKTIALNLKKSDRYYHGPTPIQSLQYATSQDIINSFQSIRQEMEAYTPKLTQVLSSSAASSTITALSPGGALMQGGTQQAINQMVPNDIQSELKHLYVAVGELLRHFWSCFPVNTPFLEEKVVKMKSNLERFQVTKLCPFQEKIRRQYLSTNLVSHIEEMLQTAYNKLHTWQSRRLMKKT
Sequence of General transcription factor IIH subunit 1 (Homo sapiens), P32780 K18A (P32780 whole entry K18A): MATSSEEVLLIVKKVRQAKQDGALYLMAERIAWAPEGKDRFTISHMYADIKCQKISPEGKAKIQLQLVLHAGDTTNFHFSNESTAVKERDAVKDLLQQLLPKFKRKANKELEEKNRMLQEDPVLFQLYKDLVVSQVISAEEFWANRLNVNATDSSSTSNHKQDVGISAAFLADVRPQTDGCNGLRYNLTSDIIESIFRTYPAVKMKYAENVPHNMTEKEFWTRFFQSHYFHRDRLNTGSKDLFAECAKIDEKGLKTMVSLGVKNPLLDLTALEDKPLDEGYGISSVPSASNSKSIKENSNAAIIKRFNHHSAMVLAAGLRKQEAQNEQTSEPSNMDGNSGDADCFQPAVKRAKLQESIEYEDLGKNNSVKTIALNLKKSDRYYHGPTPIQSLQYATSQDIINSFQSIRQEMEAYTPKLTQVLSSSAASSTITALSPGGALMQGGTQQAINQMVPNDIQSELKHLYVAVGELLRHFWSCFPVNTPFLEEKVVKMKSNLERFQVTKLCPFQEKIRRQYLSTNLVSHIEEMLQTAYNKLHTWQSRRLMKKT
Sequence of General transcription factor IIH subunit 1 (Homo sapiens), P32780 K19A (P32780 whole entry K19A): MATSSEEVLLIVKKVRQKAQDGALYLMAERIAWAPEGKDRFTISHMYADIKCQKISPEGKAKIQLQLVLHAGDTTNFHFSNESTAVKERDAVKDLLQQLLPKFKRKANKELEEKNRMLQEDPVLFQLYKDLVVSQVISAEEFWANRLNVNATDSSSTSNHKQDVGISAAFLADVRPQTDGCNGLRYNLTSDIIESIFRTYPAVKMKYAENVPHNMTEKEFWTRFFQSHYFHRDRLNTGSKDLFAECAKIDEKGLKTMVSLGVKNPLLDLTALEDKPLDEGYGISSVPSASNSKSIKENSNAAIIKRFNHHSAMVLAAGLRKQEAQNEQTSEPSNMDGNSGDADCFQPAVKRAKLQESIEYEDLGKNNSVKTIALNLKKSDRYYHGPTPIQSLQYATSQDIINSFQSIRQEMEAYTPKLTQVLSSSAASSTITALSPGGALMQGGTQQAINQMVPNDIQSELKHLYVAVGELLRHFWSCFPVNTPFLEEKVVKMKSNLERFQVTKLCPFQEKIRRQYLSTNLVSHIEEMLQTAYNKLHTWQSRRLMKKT
Sequence of General transcription factor IIH subunit 1 (Homo sapiens), P32780 K54A (P32780 whole entry K54A): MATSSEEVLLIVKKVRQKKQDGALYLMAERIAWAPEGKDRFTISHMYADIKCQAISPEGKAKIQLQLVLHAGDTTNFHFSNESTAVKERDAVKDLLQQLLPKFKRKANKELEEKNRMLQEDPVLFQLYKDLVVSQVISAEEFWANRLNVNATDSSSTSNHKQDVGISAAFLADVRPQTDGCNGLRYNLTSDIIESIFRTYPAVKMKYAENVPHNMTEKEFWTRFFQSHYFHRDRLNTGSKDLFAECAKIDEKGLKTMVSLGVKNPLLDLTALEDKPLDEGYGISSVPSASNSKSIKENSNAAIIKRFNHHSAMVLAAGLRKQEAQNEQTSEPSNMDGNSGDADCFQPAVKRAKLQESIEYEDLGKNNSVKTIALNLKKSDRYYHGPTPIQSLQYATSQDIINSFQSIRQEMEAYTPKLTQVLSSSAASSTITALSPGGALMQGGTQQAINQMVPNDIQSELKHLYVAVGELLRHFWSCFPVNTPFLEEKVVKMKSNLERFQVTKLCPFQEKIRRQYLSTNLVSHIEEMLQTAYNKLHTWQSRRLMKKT
Sequence of General transcription factor IIH subunit 1 (Homo sapiens), P32780 V68A (P32780 whole entry V68A): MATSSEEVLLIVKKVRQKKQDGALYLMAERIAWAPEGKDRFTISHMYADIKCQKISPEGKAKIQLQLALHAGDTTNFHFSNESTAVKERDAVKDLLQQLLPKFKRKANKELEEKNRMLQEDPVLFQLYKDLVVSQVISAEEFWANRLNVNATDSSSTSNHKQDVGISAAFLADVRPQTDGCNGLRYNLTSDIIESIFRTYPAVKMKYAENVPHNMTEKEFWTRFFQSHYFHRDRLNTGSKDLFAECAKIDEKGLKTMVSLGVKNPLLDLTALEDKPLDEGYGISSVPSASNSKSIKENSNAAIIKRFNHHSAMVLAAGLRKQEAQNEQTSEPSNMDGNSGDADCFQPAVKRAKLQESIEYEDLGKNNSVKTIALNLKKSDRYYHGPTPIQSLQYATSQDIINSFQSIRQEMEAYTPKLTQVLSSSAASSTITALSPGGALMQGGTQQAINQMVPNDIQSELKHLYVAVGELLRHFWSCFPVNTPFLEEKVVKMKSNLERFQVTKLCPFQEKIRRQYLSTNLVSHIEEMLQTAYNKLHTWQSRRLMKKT

“General transcription factor IIH subunit 1 (Homo sapiens), P32780 K18A” was tested, and the “effect of a mutation on the interaction” value [1] was “decreasing interaction”.
For “General transcription factor IIH subunit 1 (Homo sapiens), P32780 K19A”, the “effect of a mutation on the interaction” value [2] was “disrupting interaction”.
With “General transcription factor IIH subunit 1 (Homo sapiens), P32780 K54A” the “effect of a mutation on the interaction” value [3] was “disrupting interaction”.
In the case of “General transcription factor IIH subunit 1 (Homo sapiens), P32780 Q66A”, the “effect of a mutation on the interaction” value [4] is reported as “decreasing interaction” and the “effect of a mutation on the interaction” value [5] is reported as “disrupting interaction”.
In the case of “General transcription factor IIH subunit 1 (Homo sapiens), P32780 V68A”, the “effect of a mutation on the interaction” value [6] is reported as “decreasing interaction”.

From IntAct's records for PubMed 18354501
